Experimental data reported in patent publication US20170226192A1.
Numbering of substitutions follows the chain as printed.

What was measured:
[1] = target: Ravn pin peptide … (Marburg virus, strain Ravn); experiment: pin peptide ELISA, pin printed as D6
[2] = target: Ravn pin peptide … (Marburg virus, strain Ravn); experiment: pin peptide ELISA, pin printed as D5
[3] = target: Ravn pin peptide … (Marburg virus, strain Ravn); experiment: pin peptide ELISA, pin D5
[4] = target: Ravn pin peptide … (Marburg virus, strain Ravn); experiment: pin peptide ELISA, pin D4; overflow value is greater than 3.9
[5] = target: Ravn pin peptide … (Marburg virus, strain Ravn); experiment: pin peptide ELISA, pin D6
[6] = target: Ravn pin peptide … (Marburg virus, strain Ravn); experiment: pin peptide ELISA, pin D5; overflow value is greater than 3.9
[7] = target: Ravn pin peptide … (Marburg virus, strain Ravn); experiment: pin peptide ELISA, pin D4
[8] = target: Ravn pin peptide […] (Marburg virus, strain Ravn); experiment: pin peptide ELISA, pin D6; overflow value is greater than 3.9

B1: CAN54G2 (antibody, V domains shown)
VH: QVQLQQSGTELVRPGTSVKISCKASGYDFTNFWLGWIKQRPGHGLEWIGDIYPGGDNTYYNEKFKGKVTLTADKSSNTAYMQFSSLTSEDSAVYFCFMILYTLDYWGQGTSVTVSS
VL: not shown
Absorbance (1 hour) [1]: 1.85
Absorbance (1 hour) [2]: 2.76

B2: CAN30G4 (antibody, V domains shown)
VH: EVKLVESGGGLVKSGGSLKLSCAVSGFTFSTYAMSWVRQIPEKRLEWVATISNGGSYIYYSDSVKGRFTISRDNAKNTLYLQMSSLRSEDTAMYYCARHRESYRYDWFAYWGQGTLVTVSA
VL: DVLMTQTPLSLPVSLGDQASISCRSSQNIVHSDGNTYLEWYLQKPGQSPKLLIYKFSNRFSGVPDRFSGSGSGTDFTLKISRVEAEDLGVYYCFQGSHVPPTFGAGTKLELK
Absorbance (1 hour) [3]: 1.97
Absorbance (1 hour) [4]: > 3.9

B3: CAN30G3 (antibody, V domains shown)
VH: QVQLKESGPGLVAPSQSLSITCTVSGFSLTDYGITWIRQPPGKGLEWLGVIWGGGSAYYNLVLKSRLSISKDNSKSQVFLKMNSLQTDDTAMYYCAKHRTLITTAMDYWGQGISVTVSS
VL: B2 VL with D33N, P45S, F56V, V99F, P101W, A105G, L111I
Absorbance (1 hour) [3]: 1.84
Absorbance (1 hour) [5]: 1.12

B4: CAN30G5 (antibody, V domains shown)
VH: EVQLVESGGGLVQPKGSLKLSCAASGFAFNSYAMHWVCQAPGKGLEWVARIRIKSGNYATSYAGSVTDRFTVSRDDSQNLFYLQMNNLKTEDTAMYYCVREWEGAMDYWGQGTSVTVSS
VL: DIVLTQSPLSLPVSLGDQASISCRSSQSLVHSNGNTYLHWYLQKPGQSPNLLIYKVSNRFSGVPDRFSGSGSGTDFTLKISRVEAEDLGVYFCSQSTHVPWTFGGGTKLEIK
Absorbance (1 hour) [6]: > 3.9
Absorbance (1 hour) [7]: 0.631
Absorbance (1 hour) [8]: > 3.9
